Laboratory results as given in article PMC4824100.

Key:
YY1-DBD = YY1-DBD (UniProt P25490 286-414); assay: ITC
FKBP25 (FKBP3) wild type = biological target: T1, FKBP25 (FKBP3) wild type (Homo sapiens, UniProt Q00688 1-224); assay: NMR PRE
T1 sequence: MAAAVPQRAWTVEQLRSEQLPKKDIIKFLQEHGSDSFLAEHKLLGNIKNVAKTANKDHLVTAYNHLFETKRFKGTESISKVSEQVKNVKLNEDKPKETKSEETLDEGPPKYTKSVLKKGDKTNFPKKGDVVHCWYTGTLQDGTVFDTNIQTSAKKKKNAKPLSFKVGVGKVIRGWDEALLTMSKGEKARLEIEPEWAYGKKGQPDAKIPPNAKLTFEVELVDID

Sequence of YY1-DBD (P25490 286-414): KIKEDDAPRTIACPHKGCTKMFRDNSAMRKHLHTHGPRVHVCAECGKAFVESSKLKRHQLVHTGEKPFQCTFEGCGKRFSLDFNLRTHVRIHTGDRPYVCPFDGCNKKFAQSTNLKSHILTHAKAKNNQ

B1: DNAYY1 23-bp (dsDNA)
DNA 1: AGGGTCTCCATTTTGAAGCATGC
DNA 2: GCATGCTTCAAAATGGAGACCCT
In the case of B1, the Kd (YY1-DBD) is reported as 390 ± 600 nM.

B2: DNA-2 (dT-EDTA at position 27) (dsDNA)
DNA 1: AGGGTCTCCATTTTGAAGCATGC
DNA 2: GCATGCTTCAAAATGGAGACCCT
modifications: dT-EDTA at residue 27 (T4 of strand 2; numbering 24-46 on antisense)
B2: binds (FKBP25 (FKBP3) wild type).

B3: DNA-1 (dT-EDTA at position 5) (dsDNA)
DNA 1: AGGGTCTCCATTTTGAAGCATGC
DNA 2: GCATGCTTCAAAATGGAGACCCT
modifications: dT-EDTA at T5 of strand 1 (Mn2+ or Ca2+ chelated)
B3: binds (FKBP25 (FKBP3) wild type).
